Sequences and labels used below:
B1: HDV Ribozyme (parent)
chain: GGCCGGCAUGGUCCCAGCCUCCUCGCUGGCGCCGGCUGGGCAACAUUCCGAGGGGACCGUCCCCUCGGUAAUGGCGAAUGGGACCCA

Variants of B1 are the subject of the data set. In words: self-cleavage, relative activity (ratio to wild type); higher = more cleavage; co-transcriptional.
In the case of GGCCGGCAUGGUCCCAGCCUCCUGGCUGGCGCCGGCUGGGCAACAUUCUGAGGGGACCGUCCCCUCGGUAAUGGCGAAUGGGACCCA [C24G C49U], the self-cleavage worked out at 0.115. In the case of GGCCGGCAUGGUCCCAGCCUCCUAGCUGGCGCCGGCUGGGCAACAUUCCGAGGGGACCGUCCCCUCGGUAAUGGCGAAAGGGACCCA [C24A U79A], the self-cleavage is 0.227. On to GGCCGGCAUGGUCCCAGCCUCCUAGCUGGCGCCGGCUGGGCAACAUUCCGAGGGGACCGUCCCCUCCGUAAUGGCGAAUGGGACCCA [C24A G67C], for which the self-cleavage turned out to be 0.739. Then GGCCGGCAUGGUCCCAGCCUCCUAGCUGGCGCCGGCUGGGCAACAUUCCGAGGGGACCGUCCCCUCGGUAAUGGCGAAUGCGACCCA [C24A G81C], with 0.17. Turning to GGCCGGCAUGGUCCCAGCCUCCUAGCUGGCGCCGGCUGGGCAACAUUCCGAGGGGACCGUCCCCUCGGUAAUGGCGAAUGAGACCCA [C24A G81A], the self-cleavage worked out at 0.0852. In the case of GGCCGGCAUGGUCCCAGCCUCCUAGCUGGCGCCGGCUGGGCAACAUUCCGAGGGGACCGUCCCCUCGAUAAUGGCGAAUGGGACCCA [C24A G68A], the self-cleavage came out at 0.678. For the variant GGCCGGCAUGGUCCCAGCCUCCUAGCUGGCGCCGGCUGGGCAACAUUCCGAGGGGACCGUCCCCUCGGUAAAGGCGAAUGGGACCCA [C24A U72A], the self-cleavage came out at 0.271. GGCCGGCAUGGUCCCAGCCUCCUAGCUGGCGCCGGCUUGGCAACAUUCCGAGGGGACCGUCCCCUCGGUAAUGGCGAAUGGGACCCA [C24A G38U]: the self-cleavage was determined as 0.0791. For GGCCGGCAUGGUCCCAGCCUCCUAGCUGGCGCCGGCUGGGCAACAUUCCGAGUGGACCGUCCCCUCGGUAAUGGCGAAUGGGACCCA [C24A G53U], the self-cleavage is 0.858. Then GGCCGGCAUGGUCCCAGCCUCCUGGCUGGCGCCGGGUGGGCAACAUUCCGAGGGGACCGUCCCCUCGGUAAUGGCGAAUGGGACCCA [C24G C36G], with 0.0923. As for GGCCGGCAUGGUCCCAGCCUCCUGGCUGGCGCCGGAUGGGCAACAUUCCGAGGGGACCGUCCCCUCGGUAAUGGCGAAUGGGACCCA [C24G C36A], the self-cleavage amounted to 0. Then GGCCGGCAUGGUCCCAGCCUCCUAGCUGGCGCCGGCUGGGCAACAUUCCGAGGGGACCGUCCCCUCGGUAAUGGCGAAUGGAACCCA [C24A G82A], with 0.223; and GGCCGGCAUGGUCCCAGCCUCCUAGCUGGCGCCGGCUGGUCAACAUUCCGAGGGGACCGUCCCCUCGGUAAUGGCGAAUGGGACCCA [C24A G40U], with 0.41; and GGCCGGCAUGGUCCCAGCCUCCUGGCUGGCGCCGGCUGGGCAACAUUCCGAGGGGACCGUCCCCUCGGUAAUGGCGAGUGGGACCCA [C24G A78G], with 0.173.

As to GGCCGGCAUGGUCCCAGCCUCCUAGCUGGCGCCGGCUGGGCAACAUUCCCAGGGGACCGUCCCCUCGGUAAUGGCGAAUGGGACCCA [C24A G50C], the self-cleavage was determined as 0.855. Take GGCCGGCAUGGUCCCAGCCUCCUGGCUGGCGCCGGCUGGGCCACAUUCCGAGGGGACCGUCCCCUCGGUAAUGGCGAAUGGGACCCA [C24G A42C]: the self-cleavage turned out to be 0.101. In the case of GGCCGGCAUGGUCCCAGCCUCCUGGCUGGCGCCGGCUGGGCAAGAUUCCGAGGGGACCGUCCCCUCGGUAAUGGCGAAUGGGACCCA [C24G C44G], the self-cleavage is 0.125.

With GGCCGGCAUGGUCCCAGCCUCCUAGCUGGCGCCGGCUGGGCAACACUCCGAGGGGACCGUCCCCUCGGUAAUGGCGAAUGGGACCCA [C24A U46C], the self-cleavage amounted to 0.269.

Take GGCCGGCAUGGUCCCAGCCUCCUAGCUGGCGCCGGCUGGGCAACAGUCCGAGGGGACCGUCCCCUCGGUAAUGGCGAAUGGGACCCA [C24A U46G]: the self-cleavage came out at 0.554.

GGCCGGCAUGGUCCCAGCCUCCUGGCUGGCGCCGGCUGGGCAACAUUCCGAGGGGACCGUCCCCUCGGUAAUGGCGAAUGGGGCCCA [C24G A83G]: the self-cleavage was 0.153. In the case of GGCCGGCAUGGUCCCAGCCUCCUAGCUGGCGCCGGCUGGGCAACAUUCCGAGGGGACCGUCCCCCCGGUAAUGGCGAAUGGGACCCA [C24A U65C], the self-cleavage was 0.658.

Turning to GGCCGGCAUGGUCCCAGCCUCCUGGCUGGCGCCGGCUGGGCAACAUUCCGAGGGGCCCGUCCCCUCGGUAAUGGCGAAUGGGACCCA [C24G A56C], the self-cleavage is 0.0723. For GGCCGGCAUGGUCCCAGCCUCCUGGCUGGCGCCGGCUGGGCAACAUUCCGAGGGGGCCGUCCCCUCGGUAAUGGCGAAUGGGACCCA [C24G A56G], the self-cleavage was 0.0875.

As for GGCCGGCAUGGUCCCAGCCUCCUGGCUGGCGCUGGCUGGGCAACAUUCCGAGGGGACCGUCCCCUCGGUAAUGGCGAAUGGGACCCA [C24G C33U], the self-cleavage is 0.104.

Consider GGCCGGCAUGGUCCCAGCCUCCUAGCUGGCGCCGGCUGGGCAACAUUCCGAGGGUACCGUCCCCUCGGUAAUGGCGAAUGGGACCCA [C24A G55U], for which the self-cleavage amounted to 0.908. On to GGCCGGCAUGGUCCCAGCCUCCUGGCUGGCGCCGGCUGGGCAACAUUCCGCGGGGACCGUCCCCUCGGUAAUGGCGAAUGGGACCCA [C24G A51C], for which the self-cleavage stood at 0. Consider GGCCGGCAUGGUCCCAGCCUCCUAGCUGGCGCCGGCUGGGCAACAUUCCGAGGGGACCCUCCCCUCGGUAAUGGCGAAUGGGACCCA [C24A G59C], for which the self-cleavage stood at 0.8.

Take GGCCGGCAUGGUCCCAGCCUCCUAGCUGGCGCCGGCUGGGCAACAUCCCGAGGGGACCGUCCCCUCGGUAAUGGCGAAUGGGACCCA [C24A U47C]: the self-cleavage amounted to 0.508.

GGCCGGCAUGGUCCCAGCCUCCUAGCUGGCGCCGGCUGGGCAACAUGCCGAGGGGACCGUCCCCUCGGUAAUGGCGAAUGGGACCCA [C24A U47G]: the self-cleavage was 0.434.

Consider GGCCGGCAUGGUCCCAGCCUCCUGGCUGGCGCCGGCUGGGGAACAUUCCGAGGGGACCGUCCCCUCGGUAAUGGCGAAUGGGACCCA [C24G C41G], for which the self-cleavage worked out at 0. On to GGCCGGCAUGGUCCCAGCCUCCUGGCUGGCGCCGGCUGGGUAACAUUCCGAGGGGACCGUCCCCUCGGUAAUGGCGAAUGGGACCCA [C24G C41U], for which the self-cleavage is 0.102. Take GGCCGGCAUGGUCCCAGCCUCCUAGCUGGCGCCGGCUGGGCAACAUUCCGAUGGGACCGUCCCCUCGGUAAUGGCGAAUGGGACCCA [C24A G52U]: the self-cleavage worked out at 0.769.

Source of the values: the RNAGym collection of RNA variant scans (doi:10.7554/elife.80360).
